Measured values published in the DeepSol protein solubility set.

Test: soluble on expression in E. coli; label from the status in PepcDB or PDB records

Sequence	soluble on expression in E. coli
MLPSAPAPLAHFLLFLHLIHSARPEDGVPIETIHAPMFEDVFDVRIHEGADKGSRLTMSQDLQKSTEPLGHCFGQLETDVDWIEWKSSRSAFYTTAQMPISATKNSNNLVGSLHLLCAGNQMHTFPFRVHITHRNHHPPTFSKNSFKFHVPTTLPIGSVITTLEVKDQDPVIYNSERRLAFTKDEPLVDILQDGTLKLKSDLSILTPYTPQRMQILAIDYGSPQLFTIANITLIPVTVSMVRELHVNVATEEYQIFEWEHPQYGTVDKYRLGIRRDDQVVYEEELEAAKTLALTKIMLSNSMNVSFQVTAIDENGETSSEWTQIGPIDRDVICKGECSRGGTPLCYVGAFNRVEQFIDARGAHCLCYPGFMGVSCETIGSMWTLTTLDVFVDLIRAMANKLNSIECSQIAI	not soluble
MGSDKIHHHHHHMGKFLKKHYIMAPGPTPVPNDILTEGAKETIHHRTPQFVSIMEETLESAKYIFQTKHNVYAFASTGTGAMEAAVANLVSPGDKVIVVVAGKFGERWRELCQAYGADIVEIALEWGDAVTPEQIEEALNKNPDAKVVFTTYSETSTGTVIDLEGIARVTKEKDVVLVTDAVSALGAEPLKMDEWGVDLVVTGSQKGLMLPPGLALISLNDKAWGLVEKSRSPRYYFDLRAYRKSYPDNPYTPAVNMIYMLRKALQMIKEEGIENVWERHRILGDATRAAVKALGLELLSKRPGNVVTAVKVPEGIDGKQIPKIMRDKYGVTIAGGQAKLKGKIFRIAHLGYMSPFDTITAISALELTLKELGYEFELGVGVKAAEAVFAKEFIGE	not soluble
MGSDKIHHHHHHMNVYEKGNGVILEGVTDFDPVHIFECGQCFRWHKQEDGSYTGVAKGRILNVKKENDKIYLNNTNLKEFNSIWYNYFDLGTDYTEIKNKLKNMDEYLNKATEFGWGIRILRQDGWEMLISFIISSNNRIPMIQRAIENLSRKFGKYIGEYEGNEYYAFPTPEELNKASQEEIRACQTGFRDKYIKSTTQAVIENNDEVSEYTNLSTEDCRKELLKFNGVGPKVCDCIALFGMQKYDSFPVDVWVKRVMQEFYIDEDMSLPKMRTYGIDKFKEMSGFAQQYLFYYARELGIGK	not soluble
MHHHHHHSSGRENLYFQGKLPEPQFYAEPHTYEEPGRAGRSFTREIEASRIHIEKIIGSGDSGEVCYGRLRVPGQRDVPVAIKALKAGYTERQRRDFLSEASIMGQFDHPNIIRLEGVVTRGRLAMIVTEYMENGSLDTFLRTHDGQFTIMQLVGMLRGVGAGMRYLSDLGYVHRDLAARNVLVDSNLVCKVSDFGLSRVLEDDPDAAYTTTGGKIPIRWTAPEAIAFRTFSSASDVWSFGVVMWEVLAYGERPYWNMTNRDVISSVEEGYRLPAPMGCPHALHQLMLDCWHKDRAQRPRFSQIVSVLDALIRSPESLRATATVS	soluble
MAHHHHHHMASTDEVVLSENRALRVECEAQEVEIAQLKNYLHMSVTKPDLCFGQQRVTLNKCLNSFPEKAWQKLIDETPEVDSPAIITALEDQLADKNKHLTACLQEISNLRSRSGDGKTKPDSITDGNTAHLLSQITFLHNEVERLEQQVNAVRAAGKEELRVMTIEYNDKLQLREKENRLLTEQLRGRKNHLADGEDMAARTKTLESQLATAGIRKKFFTHREKQFPGKNPKIRGCY	not soluble
MFNKVIMVGRLTRNVELKYLPSGSAAATIGLATSRRFKKQDGTLGEEVCFIDARLFGRTAEIANQYLSKGSSVLIEGRLTYESWMDQTGKKNSRHTITADSLQFMDKKSDNPQANAMQDSIMHENSNNAYPANH	soluble
VQRCVIIQKDQHGFGFTVSGDRIVLVQSVRPGGAAMKAGVKEGDRIIKVNGTMVTNSSHLEVVKLIKSGAYVALTLLGSS	soluble
MEFKVTLTTEEIVRGLKHYRRIAKQDVLRAPETPNPEVFRRHAEARREVYAKLAEVAEREGPEAAVAYALELYRSLPFVTGTPEDQYPEIKGQENALENFFLMIGLDPKVRREARKARKPLQ	soluble
MSLRLKVSFQAMESTVPLNYNYFLSSFIYKRLASQNENFARFLHEKGYGKRFKFFTFSQLFFENSRVSGERIFIFPGKGWWYISSPVVEFVRYMFSSLSEDPVIRVGKTEFIVKSIDIENSLPDQSEYHFVMLSPLVVSVPEENNGKLYHRYLHPGEEEFYEVFRKNLMKKYRAFYGKDPEGTVEVIPDWDYIKSRHRITKRIKLKNAFVRAVVFPFKIRGEKKLVEIGYEAGFGEKNSMGFGMVALKKYEREGHHHHHH	soluble
MGSDKIHHHHHHMSNTQKVPVTILTGFLGSGKTTLLNRILSEEHGKKIAVIENEYGEVGIDQGLVINADEEVFEMSNGCICCTVRGDLIRVLGNLMKRRDKFDYVLVETTGLADPGPVAQTFFMDDEIREEFSLDGIVTLVDAAHIEQQLGRSDESSEQVAFADVLVLNKTDLVSDESLDNLESRLRDMNRMARVIRSKQADVSIDTVLNLSAFDLDQVLQRRPTFLEPEYPFEWTGVFSLEKGRYELTLEEGPDPTMSLVQLLDQGKDETALNTGAESCVRLYAEQEQLMNPGDLVPVGKHVNLQLQSEGTKSFFIDVDKARDIGLFTQHTAEEFNMKLTKVNTPSTDEIDNDQNISTISPIAERVWVAEHEHDDEVGSFAIEREGDVDPEKLNRWLSRLLSEKGVDIFRTKGFISYAGESKRIVFQGVHMLFTAQPDKEWGNEPRRNQLVFIGRNLDEAEMIKEFDKCLV	not soluble
MDRQAIEKTAGHLRPLMPTPPEIGLILGSGLGVLADEIEEAVRIPYEDIPGFPVSTVEGHAGRLVYGRLEGATVVAMQGRFHYYEGYSLQEVTFPVRVMKALGVRELIVTNAAGGINERFQPGDFMIISDHINLLGTNPLIGPNDPELGPRFPDMTEAYSRRLRELAKETAARLGVRVHEGVYVANTGPSYETPAEIRMIRTLGGDAVGMSTVPEVIVARHGGIEVLGISCISNMAAGMSDAPLHHDEVVETAERVKTDFLRFVKAIVAEMAKSKRKR	soluble
MGSDKIHHHHHHMKIGIDGRAAKWYRGTGIGTYTYQLISHINKLDEANDYTIFLPDSSNLNFKLKNNFSLKSINCTAKNNFWDQVNIPNIIKKDDTELYHVPQNGIGLPYNKNCRFTITLHDIIPYKMPETVGKKYLKIFEEEIPKIIPLCDGIITVSDFSKKDISEFFNYPESKIYVTYLSAEDIYRPIEKCISKDIIKNLYGIDKNYILYVGGFSPRKNISGIIHAFSKLKKTTKTNLKLIIAGKKGLSYPNYVDIAKKLNVSSDVIFPGFIPLEYMPFLYNAAEFLIYPSFYEGFGLPPLEAMACKVPVITSNITSLYEIFNGCALIVNPYDVEKIKDAMEIMYFDSSVRKIYSEKGFEFSKKLTWNSTAISTIKAYEKISKN	not soluble
SMDEVVRIHSSSGTTGKPTVVGYTKHDMEVWGEVMARTFTLAGVTAKDVVHNAYGYGLFTGGLGFHDGAQRVGATIIPASGGFTNRQIMLLRDFKATALTCTPSFAMHLAEVAKSEGFDPRKDFHLKAGIFGAEPSSEGLQRAVADTWGIAYHEIYGLSELIGPGVSCSCEQ	not soluble
MKRIGVLTSGGDSPGMNAAIRAVVRKAIFHDIEVYGIYHGYAGLISGHIEKLELGSVGDIIHRGGTKLYTARCPEFKDPEVRLKGIEQLKKHGIEGLVVIGGDGSYQGAKKLTEQGFPCVGVPGTIDNDIPGTDFTIGFDTALNTVIDAIDKIRDTATSHERTYVIEVMGRHAGDIALWAGLADGAETILIPEEEYDMEDVIARLKRGSERGKKHSIIVVAEGVGSAIDIGKHIEEATNFDTRVTVLGHVQRGGSPSAQDRVLASRLGARAVELLIAGKGGRCVGIQDNKLVDHDIIEALAQKHTIDKDMYQLSKELSI	not soluble
MNRICELLGIEHPIISGGMVWCSGWKLASAVSNCGGLGLIGAGSMHPDNLEHHIRSCKAATDKPFGVNVPLLYPEMDKIMEIIMREHVPVVVTSAGSPKVWTAKLKAAGSKVIHV	not soluble
MKLAVIAANGQAGKAIVEEAVKRGHEVTAIVRSENKSQAESIIKKDLFELTKDDLTGFDAVISAFGAYTPDTLPLHSKSIELFNQLLAGTQTRFLVVGGAGSLYIDETKTTRLLDTPDFPEEFKPLAKAQADELDLLRTKNNLNWTFVSPAVDFIPDGEKTGNYILAGEIFTTNEKGISQISYADYAIGLVDELEKGHHIKERISLLEKLEHHHHHH	soluble
MSLKITIYDLAELSGVSASAVSAILNGNWKKRRISAKLAEKVTRIAEEQGYAINRQASMLRSKKSHVIGMIIPKYDNRYFGSIAERFEEMARERGLLPIITCTRRRPELEIEAVKAMLSWQVDWVVATGATNPDKISALCQQAGVPTVNLDLPGSLSPSVISDNYGGAKALTHKILANSARRRGELAPLTFIGGRSSDHNTSERLRGFHDAHRELGLSVPQANILAPGYSKGHVEDCLQERFGSAKTLLQGIFVNSTISLEGVVRWLSQVGLTGSEQPPMGCFDWDPFVYLLGHDIDMVQQDVPAMLDAVFSIIDAGEASQQRIEIPPRLMSSSEGHHHHHH	soluble
GPLGSNMDAAEVEFLAEKELVTIIPNFSLDKIYLIGGDLGPFNPGLPVEVPLWLAINLKQRQKCRLLPPEWMDVEKLEKMRDHERKEETFTPMPSPYYMELTKLLLNHASDNIPKADEIRTLVKDMWDTRIAKLRVSADSFVRQQEAHAKLDNLTLMEINTSGTFLTQALNHMYKLRTNLQPLESTQSQDF	soluble
GSLVPELNEKDDDQVQKALASRENTQLMNRDNIEITVRDFKTLAPRRWLNDTIIEFFMKYIEKSTPNTVAFNSFFYTNLSERGYQGVRRWMKRKKTQIDKLDKIFTPINLNQSHWALGIIDLKKKTIGYVDSLSNGPNAMSFAILTDLQKYVMEESKHTIGEDFDLIHLDCPQQPNGYDCGIYVCMNTLYGSADAPLDFDYKDAIRMRRFIAHLILTDALK	soluble
MTSSATSPTNGVDKNKNEEMVATPANCPYQLFNQEVVWNGKWIQTRQVGFKTHTGQVGVWQSVHRNTKPVEASADGVSIIARVRKQGKLYIVLVKQYRIPCGKLCLELPAGLIDAGETAQQAAIRELKEETGYVSGKVVMESKLCFLDPGLTDDSQCLVVVDVDGDAPENQNPVQVLDSTESIEVLLVEQSALMAYVTNLDSSSIVVESTLLAYAMGIQFATI	not soluble
MGSDKIHHHHHHMTTSIDTLSAFVYAADLGSFSAAARRLGKSQSTISEAIANLEIDLGSSLFDRGTRAPTLTPAGRLLLPQARQIMAASQDLRRQAAQLNAGVETRLTIVLSDTFQSRTLESVACRLEERYPLLELECLVGEQEDVLDLILSGRAQLGLVGAMDSYPPDVRHQRQREASELALYAAHRHPLAGMDRIDEQQLDQHRQLRLNTYSDKTPADSGQRQWYAPSYLMLLDMARLGVGWAELPCWLVHSFGGGELKQLDVAGWPKRMPVDLVWAANKPLGAAAGWLLQQLTDGAEQR	not soluble
MGSDKIHHHHHHMINFSQIQVFITIVESGGFIAAGEKMHRSQPAITNAIKKLESSLGFELFDRKVYRPQLTAKGKAFYQKAREVVAQFMQLENSAETLRSGVETQFSIDLDIALPLPGYAPLIQSFIRQYPETCFSLSNNTFVRCLERLERRECHLCIAASHIRSPQIEYLRMPSIRMIPVASRDYYDQHKERINNPKLGIYCMQIMIAGTQQELYQLKIEPLSHSMPKWLVGDMYIRKQLILSGMGIGRLPDHLVEKELAEGSLVQLNTRDYVAVTMDIYAMRLNNQEHGMVSNYAWQSLKSYAEDTVSPDLK	not soluble
